3 molecules from patent WO2008118324A2 (dated 2008) can be followed below.

Experiment [1] deals with T1, human UPK-Ib expressed on the surface of cells (human, UniProt O75841 1-260).
T1 construct: whole, on cells; also called uroplakin Ib; UPK-1
T1 sequence (looked up): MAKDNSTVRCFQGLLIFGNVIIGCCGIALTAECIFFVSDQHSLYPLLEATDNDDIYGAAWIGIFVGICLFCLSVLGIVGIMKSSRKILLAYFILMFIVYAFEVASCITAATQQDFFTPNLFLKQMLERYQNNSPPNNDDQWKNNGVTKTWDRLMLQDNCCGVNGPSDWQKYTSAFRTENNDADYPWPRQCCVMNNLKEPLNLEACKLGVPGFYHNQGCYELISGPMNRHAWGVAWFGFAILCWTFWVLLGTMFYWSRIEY
Put plainly: flow cytometry, antibody at 2 ug/mL on A549 and EKVX cells. On the technique in general: A flow cytometer gives signals particle by particle.

For experiment [2], the target named is T1, human UPK-Ib expressed on the surface …. Put plainly: flow cytometry on a transitional cell carcinoma line.

B1: chimeric 1G9 containing the enhancing Fc mutant (antibody, V domains shown)
VH: QVQLQQPGAELVRPGSSVKVSCKASGYTFSSYWMHWVKQRPIQGLEWIGNIDPSDSETHYNQKFKDKATLTVDKSSSTAYMQLSSLTSEDSAVYYCARSGAGTGPWLAYWGQGTLVTVSA
VL: DIVMTQSPSSLTVTAGEKVTMTCKSSQSLLNSGNQKNYLTWYQQKPGQPPNPLIYWASTRESGVPDRFTGSGSGTDFTLTISSVQAEDLAVYYCQNDYSYPFTFGSGTKLEIKR
notes: domain: C-kappa segment; They are not tied to this construct; also called chlG9-mut; chlG9 Fc mut; not shown: human IgG1 constant region carrying the 'enhancing Fc mutant'
As for B1, the binding result in experiment [1] is “binds”.

B2: 1G9 monoclonal antibody (murine) (antibody, V domains shown)
VH: QVQLQQPGAELVRPGSSVKVSCKASGYTFSSYWMHWVKQRPIQGLEWIGNIDPSDSETHYNQKFKDKATLTVDKSSSTAYMQLSSLTSEDSAVYYCARSGAGTGPWLAYWGQGTLVTVSA
VL: DIVMTQSPSSLTVTAGEKVTMTCKSSQSLLNSGNQKNYLTWYQQKPGQPPNPLIYWASTRESGVPDRFTGSGSGTDFTLTISSVQAEDLAVYYCQNDYSYPFTFGSGTKLEIK
notes: Mouse (BALB/c) hybridoma antibody, tested as culture supernatant and detected with anti-mouse IgG; also called 1G9 MAb
For B2, the binding result in experiment [2] was “binds”.

B3: 5H9 monoclonal antibody (murine) (antibody, V domains shown)
VH: EVQLVESGGGLVQPKGSLKLSCAASGFSFNTYAMNWVRQAPGKGLEWVARIRSKSNNYATYYADSVKDRFTISRDDSESMLYLQMNNLKTEDTAMYYCVRQGDGYYVGWFAYWGQGTLVTVSA
VL: DIQMTQTTSSLSASLGDRVTISCRASQDISNYLNWYQQKPDGTVKLLIYYTSRLHSGVPSRFSGSGSGTDYSLTISNLEQEDIATYFCQQGNTLPFTFGSGTKLEIK
notes: Mouse (BALB/c) hybridoma antibody, tested as culture supernatant and detected with anti-mouse IgG; also called 5H9 MAb; murine 5H9
For the molecule B3, the binding result in experiment [2] is recorded as “binds”.
